Source: paper PMC4506539, “Crystallographic structure of a small molecule SIRT1 activator-enzyme complex” (Nature Communications, 2015)

T1: full-length human SIRT1 (human, UniProt Q96EB6 1-747)
T1 construct: human SIRT1, full length, 747 amino acids; also called hSIRT1; wild-type hSIRT1
T1 sequence (looked up): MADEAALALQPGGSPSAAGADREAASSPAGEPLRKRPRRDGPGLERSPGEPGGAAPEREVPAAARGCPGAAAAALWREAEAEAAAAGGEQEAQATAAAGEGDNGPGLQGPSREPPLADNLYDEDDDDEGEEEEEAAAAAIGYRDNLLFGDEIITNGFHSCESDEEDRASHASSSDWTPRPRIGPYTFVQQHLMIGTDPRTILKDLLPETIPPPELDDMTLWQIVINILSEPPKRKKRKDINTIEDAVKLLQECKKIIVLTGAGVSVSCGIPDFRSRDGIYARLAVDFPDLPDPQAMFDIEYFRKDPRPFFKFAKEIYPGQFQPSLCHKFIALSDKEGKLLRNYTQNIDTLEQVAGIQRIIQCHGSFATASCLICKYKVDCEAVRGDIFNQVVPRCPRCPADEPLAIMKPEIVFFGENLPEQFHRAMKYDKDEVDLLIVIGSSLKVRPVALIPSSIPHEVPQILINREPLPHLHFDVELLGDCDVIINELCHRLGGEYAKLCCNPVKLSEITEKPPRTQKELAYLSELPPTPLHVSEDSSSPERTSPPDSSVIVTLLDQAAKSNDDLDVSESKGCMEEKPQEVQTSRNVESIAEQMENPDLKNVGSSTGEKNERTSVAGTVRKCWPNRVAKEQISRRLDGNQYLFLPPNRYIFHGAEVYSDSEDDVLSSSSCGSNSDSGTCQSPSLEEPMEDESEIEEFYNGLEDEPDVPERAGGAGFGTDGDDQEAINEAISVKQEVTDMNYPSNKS

T2: hSIRT1 catalytic core, residues 229–516 (human, UniProt Q96EB6 229-516)
T2 sequence (looked up): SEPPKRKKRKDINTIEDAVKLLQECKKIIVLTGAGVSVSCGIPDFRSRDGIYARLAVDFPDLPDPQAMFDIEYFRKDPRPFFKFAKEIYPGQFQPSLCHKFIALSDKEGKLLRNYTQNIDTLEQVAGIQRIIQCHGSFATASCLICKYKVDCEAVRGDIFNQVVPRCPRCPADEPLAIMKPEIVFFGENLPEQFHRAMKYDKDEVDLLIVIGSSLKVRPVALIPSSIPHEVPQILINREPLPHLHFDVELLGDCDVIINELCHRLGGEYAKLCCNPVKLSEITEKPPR

B1: Ac-p53(W5) (Ac-RHKKAcW-NH2) (peptide)
peptide: Ac-RHKK(Ac)W-NH2
notes: p53-based peptide Ac-RHKKAcW-NH2; also called Trp-5mer; p53-derived peptide substrate; source: synthetic peptide, bought: Biopeptide

Assays:
full-length human SIRT1 = biological target: T1, full-length human SIRT1; assay: HDX-MS; 0.77 mg/ml full-length SIRT1 ± 3.88 mM Ac-p53(W5) ± 192 μM STAC 1 in 1.9% DMSO, mixed 1:1 with 100 mM phosphate pH read 7.0 in D2O; 0 °C, 15-5,000 s; conditions: both partners purified
[1] = biological target: T2, hSIRT1 catalytic core, residues 229–516; assay: cell-based or functional assay

Binder | binding result (full-length human SIRT1) | deacetylase activity of hSIRT1cd after addition of the CTR peptide, relative to full-length hSIRT1 (∼15% without the peptide) [1]
B1 | binds | –
QYLFLPPNRYIFHGAEVYSDSEDDV (peptide, UniProt Q96EB6 641-665, looked up) [human C-terminal regulatory segment (CTR) peptide of SIRT1] | – | 80 % of the activity of full-length hSIRT1
